Data reported in publication PMC5748987 (The Journal of Cell Biology, 2018).

B1: GST-xBuGZ(8–58) (domain or fragment)
chain: not shown
B2: GST-xAurA (full length, amino acids 1–407) (enzyme)
chain: MERAVKENHKPSNVKIFHPMTEGAKRIPVNQPQSTQFRPPGTAVSAQRILGPSNVPQRVLAQAQKPILSSQKPTTQIPLRPATQGHQSSKPQGPNENRNPQQTSHSSTPNVEKKGSTDQGKTSAVPKEEGKKKQWCLEDFEIGRPLGKGKFGNVYLARERESKFILALKVLFKSQLEKAGVEHQLRREVEIQSHLRHPNILRLYGYFHDASRVYLILDYAPGGELFRELQKCTRFDDQRSAMYIKQLAEALLYCHSKKVIHRDIKPENLLLGSNGELKIADFGWSVHAPSSRRTTLCGTLDYLPPEMIEGRMHDETVDLWSLGVLCYEFLVGKPPFETDTHQETYRRISKVEFQYPPYVSEEARDLVSKLLKHNPNHRLPLKGVLEHPWIIKNSQLKKKDEPLPGAQ
B3: xAurA (cleaved from mCherry-xAurA) (enzyme)
chain: B2 chain
B4: GST-xAurA(127–407) (domain or fragment)
chain: KEEGKKKQWCLEDFEIGRPLGKGKFGNVYLARERESKFILALKVLFKSQLEKAGVEHQLRREVEIQSHLRHPNILRLYGYFHDASRVYLILDYAPGGELFRELQKCTRFDDQRSAMYIKQLAEALLYCHSKKVIHRDIKPENLLLGSNGELKIADFGWSVHAPSSRRTTLCGTLDYLPPEMIEGRMHDETVDLWSLGVLCYEFLVGKPPFETDTHQETYRRISKVEFQYPPYVSEEARDLVSKLLKHNPNHRLPLKGVLEHPWIIKNSQLKKKDEPLPGAQ

Columns and labels:
[1] = biological target: B3; assay: pull-down
YFP-xBuGZ (full length) [2] = biological target: T1, YFP-xBuGZ (full length) (Xenopus laevis, UniProt Q7ZXV8 1-452); assay: pull-down
T1 sequence (Q7ZXV8 whole entry): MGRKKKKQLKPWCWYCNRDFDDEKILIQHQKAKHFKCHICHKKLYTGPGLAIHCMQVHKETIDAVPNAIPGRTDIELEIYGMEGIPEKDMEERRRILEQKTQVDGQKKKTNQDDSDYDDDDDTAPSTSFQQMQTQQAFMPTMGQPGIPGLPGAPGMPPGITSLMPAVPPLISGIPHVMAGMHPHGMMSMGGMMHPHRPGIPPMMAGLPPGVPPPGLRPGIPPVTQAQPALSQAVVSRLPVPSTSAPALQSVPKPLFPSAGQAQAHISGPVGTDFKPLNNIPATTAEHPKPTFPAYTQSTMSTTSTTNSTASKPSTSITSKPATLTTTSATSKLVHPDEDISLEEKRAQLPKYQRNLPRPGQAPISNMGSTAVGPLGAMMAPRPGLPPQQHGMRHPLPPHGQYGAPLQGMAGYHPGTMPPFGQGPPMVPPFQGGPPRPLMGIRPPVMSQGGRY

YFP-xBuGZΔN7 = YFP-xBuGZΔN7 (Xenopus laevis, UniProt Q7ZXV8 8-452); assay: pull-down
Sequence of YFP-xBuGZΔN7 (Q7ZXV8 8-452, stated change not applied): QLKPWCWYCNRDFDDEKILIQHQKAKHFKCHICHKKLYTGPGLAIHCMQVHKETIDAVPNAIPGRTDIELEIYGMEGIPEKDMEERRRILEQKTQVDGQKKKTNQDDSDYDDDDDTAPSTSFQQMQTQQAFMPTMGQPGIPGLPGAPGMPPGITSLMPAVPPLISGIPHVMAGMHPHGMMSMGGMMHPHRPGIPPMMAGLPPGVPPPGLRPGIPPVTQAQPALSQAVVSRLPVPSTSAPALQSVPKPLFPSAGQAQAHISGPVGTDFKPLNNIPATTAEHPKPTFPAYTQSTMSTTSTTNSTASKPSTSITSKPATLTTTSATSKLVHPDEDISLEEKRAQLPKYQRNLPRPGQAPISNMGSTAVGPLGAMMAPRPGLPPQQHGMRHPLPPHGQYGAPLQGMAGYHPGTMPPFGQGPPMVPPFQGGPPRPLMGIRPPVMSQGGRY

YFP-xBuGZ (full length) [3] = biological target: T1, YFP-xBuGZ (full length); assay: co-sedimentation

Binder: B1
binding result [1]: binds

Binder: B2
binding result (YFP-xBuGZ (full length) [2]): binds

Binder: B3
binding result (YFP-xBuGZΔN7): binds | binding result (YFP-xBuGZ (full length) [3]): binds

Binder: B4
binding result (YFP-xBuGZ (full length) [2]): binds
